Substitutions are numbered along the chain they refer to. Numbers in names are those of the source.
B1: Bok-S (short splicing variant of Bok, rat) (other)
chain: MEVLRRSSVFAAEIMDAFDRSPTDKELVAQAKALGREYVHARLLRAGLSWSAPERASPAPGGRLAEVCTVLLRLGITWGKVVSLYSVAAGLAVDCVRQAQPAMVHALVDCLGEFVRKTLATWLRRRGGWTDVLKCVVSTDPGFRSHWLVATLCSFGRFLKAAFFLLLPER
notes: also called truncated Bok
B2: Bok-L (Bcl-2-related ovarian killer, long form, rat) (other)
chain: MEVLRRSSVFAAEIMDAFDRSPTDKELVAQAKALGREYVHARLLRAGLSWSAPERASPAPGGRLAEVCTVLLRLGDELEQIRPSVYRNVARQLHIPLQSEPVVTDAFLAVAGHIFSAGITWGKVVSLYSVAAGLAVDCVRQAQPAMVHALVDCLGEFVRKTLATWLRRRGGWTDVLKCVVSTDPGFRSHWLVATLCSFGRFLKAAFFLLLPER
notes: also called full-length Bok protein
B3: BokADE (Bok-L G75A) (other)
chain: B2 chain with G75A
notes: also called BokADE: G 75 A
B4: BHRF1 (other)
chain: MAYSTREILLALCIRDSRVHGNGTLHPVLELAARETPLRLSPEDTVVLRYHVLLEEIIERNSETFTETWNRFITHTEHVDLDFNSVFLEIFHRGDPSLGRALAWMAWCMHACRTLCCNQSTPYYVVDLSVRGMLEASEGLDGWIHQQGGWSTLIEDNIPGSRRFSWTLFLAGLTLSLLVICSYLFISRGRH
B5: BokAAA (Bok-L 75 AAA 77) (other)
chain: B2 chain with G75A, D76A, E77A
notes: also called BokAAA: 75 AAA 77
B6: BokGGGG (Bok-L 71 LLRL 74 to 71 GGGG 74) (other)
chain: B2 chain with L71G, L72G, R73G, L74G
notes: also called BokGGGG mutant

How the values were obtained:
[1] = target: T1, Mcl-1 (rat) (rat, UniProt Q9Z1P3 1-330); test: yeast two-hybrid, Bok-S-GAL4-AD vs GAL4-BD fusion
[2] = target: B4; test: yeast two-hybrid, Bok-S-GAL4-AD vs GAL4-BD fusion
[3] = target: T1, Mcl-1 (rat); test: yeast two-hybrid, yeast cell growth grade (++ prominent, + moderate)
[4] = target: T1, Mcl-1 (rat); test: yeast two-hybrid, mutant Bok-L-GAL4-AD vs GAL4-BD fusion
[5] = target: B2; test: yeast two-hybrid, yeast cell growth grade (++ prominent, + moderate)

T1 sequence (Q9Z1P3 whole entry, the tested form may be a part): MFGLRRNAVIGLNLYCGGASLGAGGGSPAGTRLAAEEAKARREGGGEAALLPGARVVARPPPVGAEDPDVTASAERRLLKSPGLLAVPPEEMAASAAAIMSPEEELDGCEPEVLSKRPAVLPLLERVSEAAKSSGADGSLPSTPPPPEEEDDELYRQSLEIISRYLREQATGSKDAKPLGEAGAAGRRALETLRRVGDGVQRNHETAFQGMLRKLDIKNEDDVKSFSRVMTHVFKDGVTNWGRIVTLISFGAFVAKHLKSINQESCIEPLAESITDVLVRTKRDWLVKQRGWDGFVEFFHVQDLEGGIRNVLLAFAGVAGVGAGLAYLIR

Question: Does B1 bind [1]?
Answer: no binding

Question: Does B1 bind [2]?
Answer: no binding

Question: Does B2 bind [3]?
Answer: binds

Question: Does B3 bind [4]?
Answer: no binding

Question: Does B4 bind [5]?
Answer: binds

Question: Does B5 bind [4]?
Answer: no binding

Question: Does B6 bind [4]?
Answer: no binding

— patent US20040253629A1 (Stanford University, published 2004)
